# Measured values published in article PMC12345223.
# T1: ChCpc1 (Cochliobolus heterostrophus C4 (Tox1+, …, UniProt M2T2C6 1-465))
# T1 sequence: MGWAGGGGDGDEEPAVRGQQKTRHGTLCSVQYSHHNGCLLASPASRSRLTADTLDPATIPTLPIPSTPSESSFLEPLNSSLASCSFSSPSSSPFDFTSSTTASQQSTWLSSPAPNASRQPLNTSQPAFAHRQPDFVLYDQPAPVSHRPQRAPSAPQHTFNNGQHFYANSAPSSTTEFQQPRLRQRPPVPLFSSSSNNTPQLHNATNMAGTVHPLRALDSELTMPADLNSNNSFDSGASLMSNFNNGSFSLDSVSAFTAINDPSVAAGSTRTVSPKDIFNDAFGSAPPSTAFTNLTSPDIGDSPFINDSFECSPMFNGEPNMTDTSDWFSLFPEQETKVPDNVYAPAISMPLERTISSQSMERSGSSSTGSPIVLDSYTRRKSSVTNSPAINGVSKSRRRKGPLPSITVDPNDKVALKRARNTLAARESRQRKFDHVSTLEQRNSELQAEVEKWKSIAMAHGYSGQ
# T2: ChAtf1 (Cochliobolus heterostrophus C4 (Tox1+, …, UniProt M2TIN4 1-567))
# T2 sequence: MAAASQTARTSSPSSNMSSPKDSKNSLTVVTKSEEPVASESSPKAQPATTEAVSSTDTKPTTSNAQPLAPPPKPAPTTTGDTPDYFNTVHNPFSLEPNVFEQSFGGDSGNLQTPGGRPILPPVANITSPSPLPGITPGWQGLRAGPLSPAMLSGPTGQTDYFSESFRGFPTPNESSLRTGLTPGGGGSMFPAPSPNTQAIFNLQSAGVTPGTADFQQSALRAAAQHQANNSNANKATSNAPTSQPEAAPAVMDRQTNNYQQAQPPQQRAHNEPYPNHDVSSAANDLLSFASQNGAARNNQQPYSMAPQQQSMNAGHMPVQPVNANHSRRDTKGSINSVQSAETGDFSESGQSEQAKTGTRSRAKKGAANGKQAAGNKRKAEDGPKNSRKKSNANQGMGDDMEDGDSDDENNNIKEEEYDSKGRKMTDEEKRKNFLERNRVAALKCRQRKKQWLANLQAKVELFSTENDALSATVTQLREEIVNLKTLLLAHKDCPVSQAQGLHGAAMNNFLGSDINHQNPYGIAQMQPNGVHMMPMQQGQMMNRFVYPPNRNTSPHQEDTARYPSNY
# B1: ChARG1 promoter probe (dsDNA)
# DNA 1: AAGACAGTGGTGGAGATCAAGTTGGATGAGTAACTTGGCGCTGCACTCGATTCGCGTGTT
# DNA 2: CCAACTTGATCTCCACCACTGTCTT
# B2: ChARG4 promoter probe (dsDNA)
# DNA 1: CATTGGCGTTTGGGACTGAATTACAATGAGTAATGAAATAACTCACACCACAAAGCAGTA
# DNA 2: TACTGCTTTGTGGTGTGAGTTATTTCATTACTCATTGTAATTCAGTCCCAAACGCCAATG
# B3: ChATG5 promoter probe (dsDNA)
# DNA 1: CAGCTATGTTGCGTTAGTAAGTCACCCATCTACGCTGTCGC
# DNA 2: GCGACAGCGTAGATGGGTGACTTACTAACGCAACATAGCTG
# B4: ChATG8 promoter probe (dsDNA)
# DNA 1: GGAGAGCGTGAAGGAGAGAGACGGGATGAGTCAAAGTACCCAGGTAGCCAGGTCATGGGA
# DNA 2: TCCCATGACCTGGCTACCTGGGTACTTTGACTCATCCCGTCTCTCTCCTTCACGCTCTCC
# B5: ChATG9 promoter probe (dsDNA)
# DNA 1: GCGGCGCGTCACCTGCATGAGTCCCATGTCGATGAGGCGCT
# DNA 2: AGCGCCTCATCGACATGGGACTCATGCAGGTGACGCGCCGC
# B6: ChATG7 promoter probe (dsDNA)
# DNA 1: TCCCAAATGTCGGTCGTGACCCATCGTTCCCTCCATCTCA
# DNA 2: TGAGATGGAGGGAACGATGGGTCACGACCGACATTTGGGA
# What was measured:
# ChCpc1 [1] = target: T1, ChCpc1; assay: EMSA; 100x unlabeled competitor prevents binding; Light Shift Chemiluminescent EMSA Kit (Beyotime), 20 min at 25°C; 6.5% polyacrylamide gel, 0.5x TBE; binding buffer, salt and pH not stated; conditions: protein: recombinant, tags: His (pET-32a), chain copies: 2, label: biotin (on forward strand)
# ChAtf1 = target: T2, ChAtf1; assay: EMSA; ChAtf1 alone; Light Shift Chemiluminescent EMSA Kit (Beyotime), 20 min at 25°C; 6.5% polyacrylamide gel, 0.5x TBE; binding buffer, salt and pH not stated; conditions: protein: recombinant; tags: His (pET32a); chain copies: 2; label: biotin (on forward strand); blunt
# ChCpc1 [2] = target: T1, ChCpc1; assay: EMSA; Light Shift Chemiluminescent EMSA Kit (Beyotime), 20 min at 25°C; 6.5% polyacrylamide gel, 0.5x TBE; binding buffer, salt and pH not stated; conditions: protein: recombinant; tags: His (pET-32a); chain copies: 2; label: biotin (on forward strand); blunt
# ChCpc1 [3] = target: T1, ChCpc1; assay: EMSA; strongest of the four ATG probes; Light Shift Chemiluminescent EMSA Kit (Beyotime), 20 min at 25°C; 6.5% polyacrylamide gel, 0.5x TBE; binding buffer, salt and pH not stated; conditions: protein: recombinant; tags: His (pET-32a); chain copies: 2; label: biotin (on forward strand); blunt
Binder,binding result (ChAtf1),binding result (ChCpc1 [2]),other results
B1,–,–,"binding result (ChCpc1 [1]; printed reverse oligo (25 nt) pairs only with nt 1-25 of the 60-nt forward strand, possibly printed incomplete): binds"
B2,no binding,–,binding result (ChCpc1 [1]; blunt): binds
B3,–,binds,–
B4,no binding,binds,–
B5,–,–,binding result (ChCpc1 [3]): binds
B6,–,binds,–
